Measured values reported in patent US20200407441A1 (I MAB BIOPHARMA US, published 2020).

Assays:
[1] = target: CD47 on human red blood cells (human) (UniProt Q08722); assay: flow cytometry on human RBCs, Donor 1
[2] = target: CD47 on human red blood cells (human) (UniProt Q08722); assay: flow cytometry on human RBCs, Donor 2
CD47 (form not stated) [3] = target: T1, CD47 (form not stated) (UniProt Q08722 19-139, limits assumed); assay: Biacore
human CD47 on Raji cells [4] = target: T2, human CD47 on Raji cells (human, UniProt Q08722 19-323); assay: flow cytometry on Raji cells
T2 construct: whole, on cells; also called CD47+ Raji cells; CD47-bearing Raji cells
Protocol: (§1) Then, the cells were washed with PBS three times, followed by incubation with APC-labeled anti-human Fc specific antibody (Invitrogen) at 4° C. for 30 minutes. Binding was measured using a FACSCanto (Becton-Dickinson).

CD47 (form not stated) [5] = target: T1, CD47 (form not stated); assay: BiaCore (SPR); format not stated
[6] = target: T3, recombinant human CD47/mouse Fc fusion protein (Acrobiosystems) (human, UniProt Q08722 19-139); assay: ELISA on recombinant CD47-ECD (FIG. 2b, dimeric CD47-ECD)
T3 construct: extracellular domain; Bought reagent; also called dimeric CD47-ECD; not shown: Mouse Fc

human CD47 on Raji cells [7] = target: T2, human CD47 on Raji cells; assay: flow cytometry on Raji cells, APC anti-human Fc
Protocol: as §1

[8] = target: T4, recombinant human CD47-Fc fusion protein (Acrobiosystems) (human, UniProt Q08722 19-139); assay: competition ELISA: blocks SIRPα-His binding to coated CD47-Fc
T4 construct: extracellular domain; also called recombinant CD47-Fc fusion protein; not shown: Fc

[9] = target: T5, Tag1-CD47 (Cisbio HTRF kit) (UniProt Q08722 19-139); assay: HTRF competition: blocks Tag1-CD47 / Tag2-SIRPα interaction (Cisbio)
T5 construct: Kit reagent
Protocol: (§2) The mixture was incubated at 25° C. for 15 minutes, and further incubated at 25° C. for 1 hour after conjugates pre-mixture was added. Then the plate sealer was removed and fluorescence data was read on a PerkinElmer Envision plate reader.

[10] = target: T3, recombinant human CD47/mouse Fc fusion …; assay: ELISA, CD47/mouse Fc coated at 1 ug/ml, anti-human Fc HRP
Protocol: CD47/mouse Fc fusion protein (Acrobiosystems) was coated at 1 ug/ml in PBS onto microtiter plates for 2 hours at RT. After coating of antigen the wells were blocked with PBS/0.05% Tween (PBST) with 1% BSA for 1 hour at RT. After washing of the wells with PBST, different concentrations of anti-CD47 antibodies were added to the well and incubated for 1 at RT. For detection of the binding antibodies, the HRP conjugated secondary antibodies against human Fc (Jackson Immuno Research) were added followed by the addition of fluorogenic substrates (Roche). Between all incubation steps, the wells of the plate were washed with PBST three times. Fluorescence was measured in a TECAN Spectrafluor plate reader.

[11] = target: T6, biotinylated human CD47-ECD protein (Acrobiosystems) (human, UniProt Q08722 19-139, biotinylated (site not stated)); assay: ELISA, biotinylated CD47 coated at 1 ug/mL, anti-human Fc HRP
T6 construct: extracellular domain; Bought reagent; also called biotinylated CD47 protein; monomeric CD47-ECD

[12] = target: CD47 on human platelets (human) (UniProt Q08722); assay: flow cytometry on human whole blood, gated on CD61 positive platelets, antibody at 10 ug/mL
[13] = target: T4, recombinant human CD47-Fc fusion …; assay: blocking ELISA, CD47-Fc coated, blocked ligand SIRPa-His at 1 ug/mL, anti-His HRP
Protocol: Recombinant CD47-Fc fusion protein (Acrobiosystems) was coated at 1 ug/ml in PBS onto microtiter plates for 16 hours at 4° C. […] Plates were subsequently washed three times and incubated with an HRP-conjugated anti-His secondary antibody for 1 h at RT.

CD47 (form not stated) [14] = target: T1, CD47 (form not stated); assay: Biacore (SPR); format not stated
human CD47 on Raji cells [15] = target: T2, human CD47 on Raji cells; assay: flow cytometry on Raji cells, MFI
[16] = target: T5, Tag1-CD47 (Cisbio HTRF kit); assay: HTRF CD47-SIRPa binding assay (ratio 665 nm / 615 nm), blocked ligand Tag2-SIRPa
Protocol: as §2

human CD47-ECD = target: T7, human CD47-ECD (human, UniProt Q08722 19-139, limits assumed, N-terminal pyroglutamate (seen in the crystal structure)); assay: ELISA on recombinant CD47-ECD; recombinant CD47-ECD
T7 construct: extracellular domain; also called recombinant CD47-ECD; CD47 ECD protein

human CD47 on Raji cells [17] = target: T2, human CD47 on Raji cells; assay: flow cytometry on Raji cells; CD47-bearing Raji cells
CD47 (form not stated) [18] = target: T1, CD47 (form not stated); assay: CD47-SIRPα blocking assay; format not stated; blocking of CD47 binding to SIRPα

Molecule IgG (antibody) has a percent of cells in the binding gate [1] of 0.079% and a percent of cells in the binding gate [2] of 0.018%.

B1: CD47 antibody 1F8 (antibody, human IgG1, V domains shown)
VH: KVQLVESGGGLVKPGGSLRLSCAASGFTFSNAWMNWVRQAPGKGLEWVGRIKRKTDGETTDYAAPVKGRFSISRDDSKNTLYLQMNSLKTEDTAVYYCAGSNRAFDIWGQGTMVTVSA
VL: DIVMTQSPDSLAVSLGERATINCKSSQSVLYSSNNRNYLAWYQQKPGQPPKLLINQASTRASGVPDRFSGSGSGTEFTLIISSLHAEDVAIYYCQQYYTPPLAFGGGTKLEIK
With B1 the kon (CD47 (form not stated) [3]) was 375000 M⁻¹ s⁻¹, the EC50 (human CD47 on Raji cells [4]) was 2.95 nM and the Kd (CD47 (form not stated) [5]) was 2.8 nM. The koff (CD47 (form not stated) [5]) was 0.00104 s⁻¹, the percent of cells in the binding gate [1] was 0.065% and the percent of cells in the binding gate [2] was 0.076%. The EC50 [6] was 0.038 nM, the “EC50 (read off the curve)” value (human CD47 on Raji cells [7]) was ~0.2 µg/mL and the IC50 [8] was 0.78 nM. The IC50 [9] was 1.6 nM, the “EC50 (read off the curve)” value [10] was ~0.006 µg/mL and the “EC50 (read off the curve)” value [11] was ~0.009 µg/mL. The percent of CD61+ platelets in the binding gate [12] was 0.77% and the “IC50 (read off the curve)” value [13] was ~0.3 µg/mL.

B2: CD47 antibody 13H3 (antibody, V domains shown)
VH: KVQLVESGGGLVKPGGSLRLSCAASGLTFERAWMNWVRQAPGKGLEWVGRIKRKTDGETTDYAAPVKGRFSISRDDSKNTLYLQMNSLKTEDTAVYYCAGSNRAFDIWGQGTMVTVSA
VL: DIVMTQSPDSLAVSLGERATINCKSSQSVLYAGNNRNYLAWYQQKPGQPPKLLINQASTRASGVPDRFSGSGSGTEFTLIISSLQAEDVAIYYCQQYYTPPLAFGGGTKLEIK
Molecule B2 has a Kd (CD47 (form not stated) [3]) of 0.46 nM, a koff (CD47 (form not stated) [3]) of 0.000247 s⁻¹ and a kon (CD47 (form not stated) [3]) of 533000 M⁻¹ s⁻¹. The EC50 (human CD47 on Raji cells [4]) was 1.06 nM, the Kd (CD47 (form not stated) [14]) was 7.81 nM and the koff (CD47 (form not stated) [14]) was 0.00282 s⁻¹. For the same molecule, the kon (CD47 (form not stated) [14]) was 361000 M⁻¹ s⁻¹, the EC50 (human CD47 on Raji cells [15]) was 1.07 nM and the EC50 [6] was 0.045 nM. It also gave an IC50 [8] of 0.2 nM and an IC50 [16] of 0.36 nM.

B3: CD47 antibody 34C5 (antibody, V domains shown)
VH: QVQLVQSGAEVKKPGSSVKVSCKASGYTFSSYYMHWVRQAPGQGLEWMGEINPNNARINFNEKFKTRVTLTVDKSTSTAYMELSSLRSEDTAVYYCTRGYYRYGAWFGYWGQGTLVTVSS
VL: DIQMTQSPSSLSASVGDRVTITCRASQDISDYLNWYQQKPGKAPKLLIYYISRLHSGVPSRFSGSGSGTDYTLTISSLQPEDFATYYCQQGHTLPWTFGGGTKVEIK
B3 gave an EC50 (human CD47-ECD) of 0.27 nM, an EC50 (human CD47 on Raji cells [17]) of 0.83 nM and an EC50 (CD47 (form not stated) [18]) of 0.3 nM.
